The record followed here is US20230357348A1 (AstraZeneca / MedImmune, published 2023).

For assay [1], the target named is human GLP-1 receptor (hGLP-1R) (human, UniProt P43220 24-463). Put plainly: cell-based or functional assay.
Assay [2] concerns the target human glucagon receptor (hGCGR) (human, UniProt P47871 26-477). Put plainly: cell-based or functional assay.

Starred links: 1 amine or outer side, 2 acyl side, 3 side chain; linkers in the order of their positions; H or OH if unused. Non-standard residues stand in square brackets, D forms with d. Groups on a side chain read outwards from the residue. No end group written: not given here. *: point of attachment. C20 diacid = O=C(O)CCCCCCCCCCCCCCCCCCC(=O)*; C18 diacid = O=C(O)CCCCCCCCCCCCCCCCC(=O)*; γGlu = O=C(O)[C@H](CCC(=O)[*:2])N[*:1]; αMeF = C[C@](N)(Cc1ccccc1)C(=O)O; AEEA = NCCOCCOCC(=O)O; Aib = CC(C)(N)C(=O)O

Sequence of human glucagon receptor (hGCGR) (P47871 26-477): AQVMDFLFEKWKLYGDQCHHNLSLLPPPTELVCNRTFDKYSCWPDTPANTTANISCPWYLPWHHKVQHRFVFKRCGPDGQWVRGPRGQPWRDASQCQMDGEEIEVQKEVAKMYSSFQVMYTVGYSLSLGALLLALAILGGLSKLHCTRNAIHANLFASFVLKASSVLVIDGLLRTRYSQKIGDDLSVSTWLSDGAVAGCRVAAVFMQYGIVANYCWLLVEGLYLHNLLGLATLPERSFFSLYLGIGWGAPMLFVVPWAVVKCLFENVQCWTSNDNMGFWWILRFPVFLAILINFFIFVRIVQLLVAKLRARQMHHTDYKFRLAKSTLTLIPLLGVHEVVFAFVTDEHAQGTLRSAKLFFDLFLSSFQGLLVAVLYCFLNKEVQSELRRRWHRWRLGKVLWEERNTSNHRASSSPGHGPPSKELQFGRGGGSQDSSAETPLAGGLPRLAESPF

B1: Peptide 492 (peptide)
peptide: H[Aib]QGTFTSDVSK[αMeF]LDTK([AEEA-AEEA-γGlu-C20 diacid])RARDFVRWLL[Aib]TE-OH
modifications: N-terminus assumed
SMILES: CC(C)C[C@H](NC(=O)[C@H](Cc1c[nH]c2ccccc12)NC(=O)[C@H](CCCNC(=N)N)NC(=O)[C@@H](NC(=O)[C@H](Cc1ccccc1)NC(=O)[C@H](CC(=O)O)NC(=O)[C@H](CCCNC(=N)N)NC(=O)[C@H](C)NC(=O)[C@H](CCCNC(=N)N)NC(=O)[C@H](CCCCNC(=O)COCCOCCNC(=O)COCCOCCNC(=O)CC[C@H](NC(=O)CCCCCCCCCCCCCCCCCCC(=O)O)C(=O)O)NC(=O)[C@@H](NC(=O)[C@H](CC(=O)O)NC(=O)[C@H](CC(C)C)NC(=O)[C@](C)(Cc1ccccc1)NC(=O)[C@H](CCCCN)NC(=O)[C@H](CO)NC(=O)[C@@H](NC(=O)[C@H](CC(=O)O)NC(=O)[C@H](CO)NC(=O)[C@@H](NC(=O)[C@H](Cc1ccccc1)NC(=O)[C@@H](NC(=O)CNC(=O)[C@H](CCC(N)=O)NC(=O)C(C)(C)NC(=O)[C@@H](N)Cc1c[nH]cn1)[C@@H](C)O)[C@@H](C)O)C(C)C)[C@@H](C)O)C(C)C)C(=O)N[C@@H](CC(C)C)C(=O)NC(C)(C)C(=O)N[C@H](C(=O)N[C@@H](CCC(=O)O)C(=O)O)[C@@H](C)O
B1: the “hGLP-1R EC50 (pM)” value in assay [1] stood at 212 pM. In assay [2], the “hGluc-R EC50 (pM)” value is 374 pM.
Consider H[Aib]QGTFTSDVSK[αMeF]LDTK([AEEA-AEEA-γGlu-C20 diacid])RAQDFVRWLLR[Aib]K-OH [Peptide 494], for which, in assay [1], the “hGLP-1R EC50 (pM)” value came out at 98.7 pM. The “hGluc-R EC50 (pM)” value in assay [2] came out at 212 pM.

B2: Peptide 495 (peptide)
peptide: H[Aib]QGTFTSDVSK[αMeF]LDTK([AEEA-AEEA-γGlu-C18 diacid])RAQDFVRWLLR[Aib]K-NH2
modifications: N-terminus assumed
SMILES: CC(C)C[C@H](NC(=O)[C@H](Cc1c[nH]c2ccccc12)NC(=O)[C@H](CCCNC(=N)N)NC(=O)[C@@H](NC(=O)[C@H](Cc1ccccc1)NC(=O)[C@H](CC(=O)O)NC(=O)[C@H](CCC(N)=O)NC(=O)[C@H](C)NC(=O)[C@H](CCCNC(=N)N)NC(=O)[C@H](CCCCNC(=O)COCCOCCNC(=O)COCCOCCNC(=O)CC[C@H](NC(=O)CCCCCCCCCCCCCCCCC(=O)O)C(=O)O)NC(=O)[C@@H](NC(=O)[C@H](CC(=O)O)NC(=O)[C@H](CC(C)C)NC(=O)[C@](C)(Cc1ccccc1)NC(=O)[C@H](CCCCN)NC(=O)[C@H](CO)NC(=O)[C@@H](NC(=O)[C@H](CC(=O)O)NC(=O)[C@H](CO)NC(=O)[C@@H](NC(=O)[C@H](Cc1ccccc1)NC(=O)[C@@H](NC(=O)CNC(=O)[C@H](CCC(N)=O)NC(=O)C(C)(C)NC(=O)[C@@H](N)Cc1c[nH]cn1)[C@@H](C)O)[C@@H](C)O)C(C)C)[C@@H](C)O)C(C)C)C(=O)N[C@@H](CC(C)C)C(=O)N[C@@H](CCCNC(=N)N)C(=O)NC(C)(C)C(=O)N[C@@H](CCCCN)C(N)=O
B2: the “hGLP-1R EC50 (pM)” value in assay [1] worked out at 23.2 pM. Further, the “hGluc-R EC50 (pM)” value in assay [2] worked out at 380 pM.

B3: Peptide 489 (peptide)
peptide: H[Aib]QGTFTSDVSK[αMeF]LDTK([AEEA-AEEA-γGlu-C18 diacid])RARDFVQWLL[Aib]TE-NH2
modifications: N-terminus assumed
SMILES: CC(C)C[C@H](NC(=O)[C@H](Cc1c[nH]c2ccccc12)NC(=O)[C@H](CCC(N)=O)NC(=O)[C@@H](NC(=O)[C@H](Cc1ccccc1)NC(=O)[C@H](CC(=O)O)NC(=O)[C@H](CCCNC(=N)N)NC(=O)[C@H](C)NC(=O)[C@H](CCCNC(=N)N)NC(=O)[C@H](CCCCNC(=O)COCCOCCNC(=O)COCCOCCNC(=O)CC[C@H](NC(=O)CCCCCCCCCCCCCCCCC(=O)O)C(=O)O)NC(=O)[C@@H](NC(=O)[C@H](CC(=O)O)NC(=O)[C@H](CC(C)C)NC(=O)[C@](C)(Cc1ccccc1)NC(=O)[C@H](CCCCN)NC(=O)[C@H](CO)NC(=O)[C@@H](NC(=O)[C@H](CC(=O)O)NC(=O)[C@H](CO)NC(=O)[C@@H](NC(=O)[C@H](Cc1ccccc1)NC(=O)[C@@H](NC(=O)CNC(=O)[C@H](CCC(N)=O)NC(=O)C(C)(C)NC(=O)[C@@H](N)Cc1c[nH]cn1)[C@@H](C)O)[C@@H](C)O)C(C)C)[C@@H](C)O)C(C)C)C(=O)N[C@@H](CC(C)C)C(=O)NC(C)(C)C(=O)N[C@H](C(=O)N[C@@H](CCC(=O)O)C(N)=O)[C@@H](C)O
Turning to B3, the “hGLP-1R EC50 (pM)” value in assay [1] came out at 22.8 pM. The “hGluc-R EC50 (pM)” value in assay [2] was determined as 168 pM.

B4: Peptide 490 (peptide)
peptide: H[Aib]QGTFTSDVSK[αMeF]LDTK([AEEA-AEEA-γGlu-C20 diacid])RARDFVQWLL[Aib]TE-NH2
modifications: N-terminus assumed
SMILES: CC(C)C[C@H](NC(=O)[C@H](Cc1c[nH]c2ccccc12)NC(=O)[C@H](CCC(N)=O)NC(=O)[C@@H](NC(=O)[C@H](Cc1ccccc1)NC(=O)[C@H](CC(=O)O)NC(=O)[C@H](CCCNC(=N)N)NC(=O)[C@H](C)NC(=O)[C@H](CCCNC(=N)N)NC(=O)[C@H](CCCCNC(=O)COCCOCCNC(=O)COCCOCCNC(=O)CC[C@H](NC(=O)CCCCCCCCCCCCCCCCCCC(=O)O)C(=O)O)NC(=O)[C@@H](NC(=O)[C@H](CC(=O)O)NC(=O)[C@H](CC(C)C)NC(=O)[C@](C)(Cc1ccccc1)NC(=O)[C@H](CCCCN)NC(=O)[C@H](CO)NC(=O)[C@@H](NC(=O)[C@H](CC(=O)O)NC(=O)[C@H](CO)NC(=O)[C@@H](NC(=O)[C@H](Cc1ccccc1)NC(=O)[C@@H](NC(=O)CNC(=O)[C@H](CCC(N)=O)NC(=O)C(C)(C)NC(=O)[C@@H](N)Cc1c[nH]cn1)[C@@H](C)O)[C@@H](C)O)C(C)C)[C@@H](C)O)C(C)C)C(=O)N[C@@H](CC(C)C)C(=O)NC(C)(C)C(=O)N[C@H](C(=O)N[C@@H](CCC(=O)O)C(N)=O)[C@@H](C)O
Regarding B4, the “hGLP-1R EC50 (pM)” value in assay [1] was found to be 69 pM. The “hGluc-R EC50 (pM)” value in assay [2] was 396 pM.

B5: Peptide 491 (peptide)
peptide: H[Aib]QGTFTSDVSK[αMeF]LDTK([AEEA-AEEA-γGlu-C18 diacid])RARDFVRWLL[Aib]TE-OH
modifications: N-terminus assumed
SMILES: CC(C)C[C@H](NC(=O)[C@H](Cc1c[nH]c2ccccc12)NC(=O)[C@H](CCCNC(=N)N)NC(=O)[C@@H](NC(=O)[C@H](Cc1ccccc1)NC(=O)[C@H](CC(=O)O)NC(=O)[C@H](CCCNC(=N)N)NC(=O)[C@H](C)NC(=O)[C@H](CCCNC(=N)N)NC(=O)[C@H](CCCCNC(=O)COCCOCCNC(=O)COCCOCCNC(=O)CC[C@H](NC(=O)CCCCCCCCCCCCCCCCC(=O)O)C(=O)O)NC(=O)[C@@H](NC(=O)[C@H](CC(=O)O)NC(=O)[C@H](CC(C)C)NC(=O)[C@](C)(Cc1ccccc1)NC(=O)[C@H](CCCCN)NC(=O)[C@H](CO)NC(=O)[C@@H](NC(=O)[C@H](CC(=O)O)NC(=O)[C@H](CO)NC(=O)[C@@H](NC(=O)[C@H](Cc1ccccc1)NC(=O)[C@@H](NC(=O)CNC(=O)[C@H](CCC(N)=O)NC(=O)C(C)(C)NC(=O)[C@@H](N)Cc1c[nH]cn1)[C@@H](C)O)[C@@H](C)O)C(C)C)[C@@H](C)O)C(C)C)C(=O)N[C@@H](CC(C)C)C(=O)NC(C)(C)C(=O)N[C@H](C(=O)N[C@@H](CCC(=O)O)C(=O)O)[C@@H](C)O
Regarding B5, the “hGLP-1R EC50 (pM)” value in assay [1] was determined as 73.6 pM. In addition, in assay [2], the “hGluc-R EC50 (pM)” value was determined as 232 pM.

B6: Peptide 493 (peptide)
peptide: H[Aib]QGTFTSDVSK[αMeF]LDTK([AEEA-AEEA-γGlu-C18 diacid])RAQDFVRWLLR[Aib]K-OH
modifications: N-terminus assumed
SMILES: CC(C)C[C@H](NC(=O)[C@H](Cc1c[nH]c2ccccc12)NC(=O)[C@H](CCCNC(=N)N)NC(=O)[C@@H](NC(=O)[C@H](Cc1ccccc1)NC(=O)[C@H](CC(=O)O)NC(=O)[C@H](CCC(N)=O)NC(=O)[C@H](C)NC(=O)[C@H](CCCNC(=N)N)NC(=O)[C@H](CCCCNC(=O)COCCOCCNC(=O)COCCOCCNC(=O)CC[C@H](NC(=O)CCCCCCCCCCCCCCCCC(=O)O)C(=O)O)NC(=O)[C@@H](NC(=O)[C@H](CC(=O)O)NC(=O)[C@H](CC(C)C)NC(=O)[C@](C)(Cc1ccccc1)NC(=O)[C@H](CCCCN)NC(=O)[C@H](CO)NC(=O)[C@@H](NC(=O)[C@H](CC(=O)O)NC(=O)[C@H](CO)NC(=O)[C@@H](NC(=O)[C@H](Cc1ccccc1)NC(=O)[C@@H](NC(=O)CNC(=O)[C@H](CCC(N)=O)NC(=O)C(C)(C)NC(=O)[C@@H](N)Cc1c[nH]cn1)[C@@H](C)O)[C@@H](C)O)C(C)C)[C@@H](C)O)C(C)C)C(=O)N[C@@H](CC(C)C)C(=O)N[C@@H](CCCNC(=N)N)C(=O)NC(C)(C)C(=O)N[C@@H](CCCCN)C(=O)O
For the molecule B6, the “hGLP-1R EC50 (pM)” value in assay [1] is 23.4 pM. In addition, the “hGluc-R EC50 (pM)” value in assay [2] amounted to 166 pM.

B7: Peptide 488 (peptide)
peptide: H[Aib]QGTFTSDVSK[αMeF]LDTK([AEEA-AEEA-γGlu-C20 diacid])RARDFVQWLL[Aib]TE-OH
modifications: N-terminus assumed
SMILES: CC(C)C[C@H](NC(=O)[C@H](Cc1c[nH]c2ccccc12)NC(=O)[C@H](CCC(N)=O)NC(=O)[C@@H](NC(=O)[C@H](Cc1ccccc1)NC(=O)[C@H](CC(=O)O)NC(=O)[C@H](CCCNC(=N)N)NC(=O)[C@H](C)NC(=O)[C@H](CCCNC(=N)N)NC(=O)[C@H](CCCCNC(=O)COCCOCCNC(=O)COCCOCCNC(=O)CC[C@H](NC(=O)CCCCCCCCCCCCCCCCCCC(=O)O)C(=O)O)NC(=O)[C@@H](NC(=O)[C@H](CC(=O)O)NC(=O)[C@H](CC(C)C)NC(=O)[C@](C)(Cc1ccccc1)NC(=O)[C@H](CCCCN)NC(=O)[C@H](CO)NC(=O)[C@@H](NC(=O)[C@H](CC(=O)O)NC(=O)[C@H](CO)NC(=O)[C@@H](NC(=O)[C@H](Cc1ccccc1)NC(=O)[C@@H](NC(=O)CNC(=O)[C@H](CCC(N)=O)NC(=O)C(C)(C)NC(=O)[C@@H](N)Cc1c[nH]cn1)[C@@H](C)O)[C@@H](C)O)C(C)C)[C@@H](C)O)C(C)C)C(=O)N[C@@H](CC(C)C)C(=O)NC(C)(C)C(=O)N[C@H](C(=O)N[C@@H](CCC(=O)O)C(=O)O)[C@@H](C)O
With B7, the “hGLP-1R EC50 (pM)” value in assay [1] turned out to be 202 pM. Also, the “hGluc-R EC50 (pM)” value in assay [2] amounted to 301 pM.
